Measurements as given in article PMC5594927.

Columns and labels:
[1] = target: T1, AtGPA1, Arabidopsis Gα subunit, His-tagged (Arabidopsis thaliana) (UniProt P18064)
T1 sequence: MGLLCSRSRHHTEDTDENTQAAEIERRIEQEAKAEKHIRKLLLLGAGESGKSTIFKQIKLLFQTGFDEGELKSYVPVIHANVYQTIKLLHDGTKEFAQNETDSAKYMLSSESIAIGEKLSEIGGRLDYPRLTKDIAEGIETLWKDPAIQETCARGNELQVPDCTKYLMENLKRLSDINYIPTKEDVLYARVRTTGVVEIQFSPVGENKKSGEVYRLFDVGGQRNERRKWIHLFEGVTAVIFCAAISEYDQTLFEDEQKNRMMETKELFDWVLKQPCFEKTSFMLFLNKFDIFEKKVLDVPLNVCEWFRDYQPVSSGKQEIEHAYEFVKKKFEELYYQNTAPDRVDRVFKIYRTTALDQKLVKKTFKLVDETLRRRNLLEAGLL

[2] = target: T1, AtGPA1, Arabidopsis Gα subunit, His-tagged (Arabidopsis thaliana); remark: listed apart in the source

rate constant of single turnover GTP hydrolysis by AtGPA1 with 30 nM RGS1box [1]: 0.18 min⁻¹
GAP activity as ΔK per molecule, single turnover GTPase assay (min^−1 pmol^−1) [2]: 0.0378
B1: C-terminal domain of AtRGS1 (residues 284–459), His-tagged (domain or fragment)
chain: KEEFRPVDPNEPLDKLLLNKRFRHSFMEFADSCYAGETLHFFEEVYEHGKIPEDDSIRRIYMARHIMEKFIVAGAEMELNLSHKTRQEILTTQDLTHTDLFKNALNEVMQLIKMNLVRDYWSSIYFIKFKEEESCHEAMHKEGYSFSSPRLSSVQGSDDPFYQEHMSKSSRCSSPG
